We go through four substances from US20200096514.

The test system of data set [1] is ELA-Q.
Data set [2] deals with LAS-Q.
The subject of data set [3] is PEG-PPQ5 fluorogenic nanosensor (PPQ5 peptide on PEG-8 40 kDa scaffold).

For recombinant mouse MMP1, the “reversal of FRET-quenched fluorescent signal (cleavage)” value (“reversal” for short) in data set [1] is “Both substrates resist cleavage by MMPI, MMP13, and thrombin”; in data set [2], “Both substrates resist cleavage by MMPI, MMP13, and thrombin”. As to recombinant mouse thrombin, the “reversal” value in data set [1] is “Both substrates resist cleavage by MMPI, MMP13, and thrombin”; in data set [2], “Both substrates resist cleavage by MMPI, MMP13, and thrombin”. In the case of recombinant mouse MMP13, the “reversal” value in data set [1] was “Both substrates resist cleavage by MMPI, MMP13, and thrombin”; in data set [2], “Both substrates resist cleavage by MMPI, MMP13, and thrombin”. For the substance recombinant human MMP13, the “in vitro cleavage (fluorescent dequenching)” value in data set [3] is “PEG-PPQ5 pre- and post-aerosolization was equally sensitive to in vitro cleavage by recombinant MMP13”.
